The results in this text go back to US20030036631.

The target in series [1] is GST-SiglecBMSL3cyto (wildtype).

B1: ZAP70 kinase (protein)
chain: MPDPAAHLPFFYGSISRAEAEEHLKLAGMADGLFLLRQCLRSLGGYVLSLVHDVRFHHFPIERQLNGTYAIAGGKAHCGPAELCEFYSRDPDGLPCNLRKPCNRPSGLEPQPGVFDCLRDAMVRDYVRQTWKLEGEALEQAIISQAPQVEKLIATTAHERMPWYHSSLTREEAERKLYSGAQTDGKFLLRPRKEQGTYALSLIYGKTVYHYLISQDKAGKYCIPEGTKFDTLWQLVEYLKLKADGLIYCLKEACPNSSASNASGAAAPTLPAHPSTLTHPQRRIDTLNSDGYTPEPARITSPDKPRPMPMDTSVYESPYSDPEELKDKKLFLKRDNLLIADIELGCGNFGSVRQGVYRMRKKQIDVAIKVLKQGTEKADTEEMMREAQIMHQLDNPYIVRLIGVCQAEALMLVMEMAGGGPLHKFLVGKREEIPVSNVAELLHQVSMGMKYLEEKNFVHRDLAARNVLLVNRHYAKISDFGLSKALGADDSYYTARSAGKWPLKWYAPECINFRKFSSRSDVWSYGVTMWEALSYGQKPYKKMKGPEVMAFIEQGKRMECPPECPPELYALMSDCWIYKWEDRPDFLTVEQRMRACYYSLASKVEGPPGSTQKAEAACA
Turning to B1, the “Decrease in Wild type Phosphorylation” value worked out at 100% with GST-L3cyto-Y667F and 20% in the series with GST-L3cyto-Y641alone. For the same protein, the “phosphorylation of wildtype GST-SIGLECBMS-L3cyto (kinase ELISA, anti p-Tyr HRP)” value (“phosphorylation … (kinase ELISA, anti p-Tyr HRP)” for short) in series [1] is “ZAP70 (20%)”.

B2: emt kinase (protein)
chain: MNNFILLEEQLIKKSQQKRRTSPSNFKVRFFVLTKASLAYFEDRHGKKRTLKGSIELSRIKCVEIVKSDISIPCHYKYPFQVVHDNYLLYVFAPDRESRQRWVLALKEETRNNNSLVPKYHPNFWMDGKWRCCSQLEKLATGCAQYDPTKNASKKPLPPTPEDNRRPLWEPEETVVIALYDYQTNDPQELALRRNEEYCLLDSSEIHWWRVQDRNGHEGYVPSSYLVEKSPNNLETYEWYNKSISRDKAEKLLLDTGKEGAFMVRDSRTAGTYTVSVFTKAVVSENNPCIKHYHIKETNDNPKRYYVAEKYVFDSIPLLINYHQHNGGGLVTRLRYPVCFGRQKAPVTAGLRYGKWVIDPSELTFVQEIGSGQFGLVHLGYWLNKDKVAIKTIREGAMSEEDFIEEAEVMMKLSHPKLVQLYGVCLEQAPICLVFEFMEHGCLSDYLRTQRGLFAAETLLGMCLDVCEGMAYLEEACVIHRDLAARNCLVGENQVIKVSDFGMTRFVLDDQYTSSTGTKFPVKWASPEVFSFSRYSSKSDVWSFGVLMWEVFSEGKIPYENRSNSEVVEDISTGFRLYKPRLASTHVYQIMNHCWKERPEDRPAFSRLLRQLAEIAESGL
Regarding B2, in the series with GST-L3cyto-Y667F, the “Decrease in Wild type Phosphorylation” value stood at 70%. The “phosphorylation … (kinase ELISA, anti p-Tyr HRP)” value in series [1] is given as “emt(65%)”.

B3: JAK3 kinase (protein)
chain: MAPPSEETPLIPQRSCSLLSTEAGALHVLLPARGPGPPQRLSFSFGDHLAEDLCVQAAKASGILPVYHSLFALATEDLSCWFPPSHIFSVEDASTQVLLYRIRFYFPNWFGLEKCHRFGLRKDLASAILDLPVLEHLFAQHRSDLVSGRLPVGLSLKEQGECLSLAVLDLARMAREQAQRPGELLKTVSYKACLPPSLRDLIQGLSFVTRRRIRRTVRRALRRVAACQADRHSLMAKYIMDLERLDPAGAAETFHVGLPGALGGHDGLGLLRVAGDGGIAWTQGEQEVLQPFCDFPEIVDISIKQAPRVGPAGEHRLVTVTRTDNQILEAEFPGLPEALSFVALVDGYFRLTTDSQHFFCKEVAPPRLLEEVAEQCHGPITLDFAINKLKTGGSRPGSYVLRRSPQDFDSFLLTVCVQNPLGPDYKGCLIRRSPTGTFLLVGLSRPHSSLRELLATCWDGGLHVDGVAVTLTSCCIPRPKEKSNLIVVQRGHSPPTSSLVQPQSQYQLSQMTFHKIPADSLEWHENLGHGSFTKIYRGCRHEVVDGEARKTEVLLKVMDAKHKNCMESFLEAASLMSQVSYRHLVLLHGVCMAGDSTMVQEFVHLGAIDMYLRKRGHLVPASWKLQVVKQLAYALNYLEDKGLPHGNVSARKVLLAREGADGSPPFIKLSDPGVSPAVLSLEMLTDRIPWVAPECLREAQTLSLEADKWGFGATVWEVFSGVTMPISALDPAKKLQFYEDRQQLPAPKWTELALLIQQCMAYEPVQRPSFRAVIRDLNSLISSDYELLSDPTPGALAPRDGLWNGAQLYACQDPTIFEERHLKYISQLGKGNFGSVELCRYDPLGDNTGALVAVKQLQHSGPDQQRDFQREIQILKALHSDFIVKYRGVSYGPGRQSLRLVMEYLPSGCLRDFLQRHRARLDASRLLLYSSQICKGMEYLGSRRCVHRDLAARNILVESEAHVKIADFGLAKLLPLDKDYYVVREPGQSPIFWYAPESLSDNIFSRQSDVWSFGVVLYELFTYCDKSCSPSAEFLRMMGCERDVPALCRLLELLEEGQRLPAPPACPAEVHELMKLCWAPSPQDRPSFSALGPQLDMLWSGSRGCETHAFTAHPEGKHHSLSFS
Turning to B3, the “Decrease in Wild type Phosphorylation” value was 25% with L3cyto-Y691F and 50% in the series with GST-L3cyto-Y667F. The “phosphorylation … (kinase ELISA, anti p-Tyr HRP)” value in series [1] was “JAK3 (92%)”.
